Data taken from US7993648.

Molecular target: CD70 (UniProt O55237)
Test: cell-based or functional assay

UniProt O55237, sequence (O55237 whole entry): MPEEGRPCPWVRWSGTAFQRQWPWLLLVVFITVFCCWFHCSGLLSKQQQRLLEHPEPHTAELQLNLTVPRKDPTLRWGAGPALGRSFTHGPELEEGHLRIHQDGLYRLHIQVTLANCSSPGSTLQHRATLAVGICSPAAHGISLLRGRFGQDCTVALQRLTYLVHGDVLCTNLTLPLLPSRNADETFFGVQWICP

CD8+ T cell response (tetramer staining of day 7 PBLs) in CD4-depleted IFNαβR KO mice: 10 fold
Substance: anti-CD70 blocking antibody FR70
